This series in a line: protein stability index of a GFP-peptide fusion (GPS, HEK-293T) (PSI 1-6); higher = more stable. To be noted: c terminus: a fixed tail appended.

± gives the standard deviation.
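Note: 24-mer peptide tiles fused after GFP, lentivirally expressed, FACS-sorted into six equal bins by GFP/DsRed ratio, decoded by Illumina sequencing, PSI is the read-weighted mean bin number.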

For the sequence EVYYDGQWGTVCDDDFSIHAAHVV [LOXL2], the protein stability index (treatment: DMSO) was 2.62 ± 0.31 and the protein stability index (treatment: MLN4924 1 uM, 8 h) turned out to be 2.6 ± 0.37.

Regarding EYGTCMCLVKGIFYHCSNDDEGDS [SPRY1], the protein stability index is 3.14 ± 0.21 (treatment: DMSO) and 3.27 ± 0.23 (treatment: MLN4924 1 uM, 8 h). Regarding EYNYDWWEKKPFSEDVNWGYEKRN [CHGB], the protein stability index runs as follows: (treatment: DMSO) 3.17 ± 0.21; (treatment: MLN4924 1 uM, 8 h) 3.19 ± 0.23. In the case of EYQVLLDVKARLEGEIATYRHLLE [KRT36], the protein stability index by setting is: (treatment: DMSO) 2.54 ± 0.32; (treatment: MLN4924 1 uM, 8 h) 2.53 ± 0.29. The matching figures for FALQSDLDQPAFQQLVSFSESGSL [ISL2]: 2.91 ± 0.37 and 3.03 ± 0.3. For FCDMDKSLLCLLCSNSQEHGAHKH [TRIM43] the same measures were 2.49 ± 0.37 and 3 ± 0.67.

Regarding FDGRHSQTLKAMVQAWPFTCLPLG [PRAME], the protein stability index is 2.38 ± 0.48 (treatment: DMSO) and 2.24 ± 0.36 (treatment: MLN4924 1 uM, 8 h). On to FDPIVLLPCDLPKVVSRAENLSVP [LPCAT4], for which the protein stability index was 2.8 ± 0.2 (treatment: DMSO) and 2.87 ± 0.3 (treatment: MLN4924 1 uM, 8 h).

For FDVVVCDQVSACIPVFRLARRRKK [ALG2], the protein stability index reads like this: (treatment: DMSO) 2.59 ± 0.28; (treatment: MLN4924 1 uM, 8 h) 2.62 ± 0.2. As for FECAWNGSDSVIMTGAYNNFFRMF [PPP2R2C], the protein stability index is, setting by setting: (treatment: DMSO) 2.5 ± 0.35; (treatment: MLN4924 1 uM, 8 h) 2.35 ± 0.6. The matching figures for FEVPYYNRGLILYRLGYFDDALED [TTC32]: 2.5 ± 0.44 and 2.23 ± 0.36.

FGDSPKAEKRQIGDQEGPRPARST [FBF1]: the protein stability index by setting is: (treatment: DMSO) 5.11 ± 0.47; (treatment: MLN4924 1 uM, 8 h) 5.08 ± 0.36. For FGGGSTRGGSLLAGGGGFGGGSLS [KRT15] the same measures were 2.54 ± 0.43 and 3.11 ± 0.52.

Take FGSLPSPKELSSFSFSMKGHEKTA [DLC1]: the protein stability index was determined as 3.53 ± 0.19 (treatment: DMSO) and 3.74 ± 0.25 (treatment: MLN4924 1 uM, 8 h). The matching figures for FGSQQSPIDVVEKYDPKTQEWSFL [KLHL12]: 3.44 ± 0.34 and 3.65 ± 0.39. The matching figures for FHITNDEPIPFWTFLSRILTGLNY [NSDHL]: 2.45 ± 0.58 and 2.2 ± 0.15. Regarding FHVNLGKESRAQTLQNGRRHIHHL [BRF1], the protein stability index worked out at 2.66 ± 0.34 (treatment: DMSO) and 2.93 ± 0.41 (treatment: MLN4924 1 uM, 8 h). The matching figures for FIIEYYNIRPADSRWVRDPRYRED [FBXO34]: 2.44 ± 0.53 and 2.26 ± 0.29. In the case of FIMLSCVQLQRIPLSAVYRICLGK [TPRG1], the protein stability index runs as follows: (treatment: DMSO) 3.06 ± 0.75; (treatment: MLN4924 1 uM, 8 h) 2.01 ± 0.43. For FKAWLHNSGTDQEQIHLLLSSQCF [M1AP] the same measures were 2.6 ± 0.66 and 2.43 ± 0.39.

Regarding FLDIDTSAVEKEPARAPPEPPHNL [SERTAD3], the protein stability index reads like this: (treatment: DMSO) 4.84 ± 0.13; (treatment: MLN4924 1 uM, 8 h) 4.98 ± 0.45. For FLIEGPLINTIRVVCASYEDYGHW [PLEKHN1], the protein stability index is, setting by setting: (treatment: DMSO) 3.56 ± 0.49; (treatment: MLN4924 1 uM, 8 h) 2.58 ± 0.94. FLKQGDSADETTAHKTEEENSDSD [CMTM3]: the protein stability index by setting is: (treatment: DMSO) 5.63 ± 0.25; (treatment: MLN4924 1 uM, 8 h) 5.58 ± 0.43. Take FLLFLLTGIVSVAFLLLPLPDELG [MOSPD3]: the protein stability index runs as follows: (treatment: DMSO) 3.36 ± 0.39; (treatment: MLN4924 1 uM, 8 h) 2.89 ± 0.9. For FLYMLMEYVPGGELFSYLRNRGRF [PRKX] the same measures were 2.75 ± 0.29 and 2.42 ± 0.28. The matching figures for FMECLVDARMLDHLTKKDLRVHLK [PPFIA4]: 2.4 ± 0.32 and 2.67 ± 0.24.

In the case of FNNGEYAEAEALYSAYIRRCACAA [TTC32], the protein stability index (treatment: DMSO) is 2.39 ± 0.19 and the protein stability index (treatment: MLN4924 1 uM, 8 h) worked out at 2.64 ± 0.46. For FQNFSLHDPLYGKLFSTYLRPPHT [LPCAT4] the same measures were 2.27 ± 0.36 and 2.12 ± 0.19. For FQREALENSHTNTEVLRNMGFAAK [CHMP4C] the same measures were 3.59 ± 0.21 and 4.08 ± 0.28. The sequence FRCPTCRHEVIMDRHGVYGLQRNL [TRIM63] returned a protein stability index (treatment: DMSO) of 2.31 ± 0.3 and a protein stability index (treatment: MLN4924 1 uM, 8 h) of 2.83 ± 0.52. FSGGKSGGNKKSDGVKESSESTNT [CAMK2A]: the protein stability index (treatment: DMSO) was determined as 5.25 ± 0.2 and the protein stability index (treatment: MLN4924 1 uM, 8 h) stood at 5.36 ± 0.34. The matching figures for FSGTDWMLEKMDLKEFDLDALLGI [ATF4]: 2.33 ± 0.11 and 2.5 ± 0.49.

For FSKASSSLQLVFGIELMEVDPIGH [MAGEA3], the protein stability index (treatment: DMSO) is 2.62 ± 0.6 and the protein stability index (treatment: MLN4924 1 uM, 8 h) was 2.29 ± 0.46. Regarding FSLNPRSGSLITAGRIDREELCAQ [PCDHGA10], the protein stability index by setting is: (treatment: DMSO) 3.83 ± 0.38; (treatment: MLN4924 1 uM, 8 h) 3.93 ± 0.37. Consider FSQLYLYSFISLFIYMVLSLFIAL [MCOLN1], for which the protein stability index is 3.28 ± 0.21 (treatment: DMSO) and 3.24 ± 0.21 (treatment: MLN4924 1 uM, 8 h). Turning to FTEYQASAFGNVKLVVHDCPVWDI [RHOBTB3], the protein stability index is, setting by setting: (treatment: DMSO) 2.54 ± 0.72; (treatment: MLN4924 1 uM, 8 h) 2.46 ± 0.41. For the sequence FTFLGKKCVTMSSAVVQLYAADRN [WASL], the protein stability index runs as follows: (treatment: DMSO) 2.33 ± 0.34; (treatment: MLN4924 1 uM, 8 h) 2.43 ± 0.36. For FTSGFNAAALDYEADGSTNNGIFQ [SPACA3] the same measures were 2.67 ± 0.53 and 3.48 ± 0.74. For FVADEGICYLPHWMMQNLLLEEGG [UFD1] the same measures were 2.36 ± 0.62 and 2.28 ± 0.38.

For the sequence FVESSGGGSSAVGQFVSLDGAGKT [BRF1], the protein stability index runs as follows: (treatment: DMSO) 2.94 ± 0.52; (treatment: MLN4924 1 uM, 8 h) 3.44 ± 0.58. On to FYTCASHVTVVILFFVPCIFLYAR [OR4A15], for which the protein stability index was 3.13 ± 0.35 (treatment: DMSO) and 3.08 ± 0.26 (treatment: MLN4924 1 uM, 8 h). For GADPDSRDFDNNTPLHIAAQNNCP [FEM1A] the same measures were 4.96 ± 0.39 and 5.18 ± 0.88. GAGDWREKEAKDLTELVQRRITYL [FUT8]: the protein stability index is, setting by setting: (treatment: DMSO) 3.61 ± 0.27; (treatment: MLN4924 1 uM, 8 h) 3.31 ± 0.3. With GAYKSSTICYCPEKGTWTELEGDV [KLHL14], the protein stability index is, setting by setting: (treatment: DMSO) 4.22 ± 0.32; (treatment: MLN4924 1 uM, 8 h) 4.38 ± 0.32. In the case of GDDAPKEEVDTGAVNLIESGACGA [INTS4], the protein stability index worked out at 5.5 ± 0.25 (treatment: DMSO) and 5.36 ± 0.18 (treatment: MLN4924 1 uM, 8 h). For GDRMFYRDWWNSTSFSNYYRTWNV [SOAT2] the same measures were 2.19 ± 0.16 and 2.28 ± 0.39. For GECRQMSSSSQIGNDSFQLQVTED [CLCN6] the same measures were 5.06 ± 0.22 and 5.09 ± 0.25. For GEDIPEKIKDEVHPEVKCVGSVAL [C8orf76] the same measures were 4.84 ± 0.39 and 4.81 ± 0.31. In turn, GEDTRLSASEMKQLIDNILEESDI [CIB1] yielded a protein stability index (treatment: DMSO) of 5.27 ± 0.27 and a protein stability index (treatment: MLN4924 1 uM, 8 h) of 5.26 ± 0.25. As for GEKPHRCPQCGKCFARKSQLTGHQ [ZNF449], the protein stability index reads like this: (treatment: DMSO) 4.66 ± 0.23; (treatment: MLN4924 1 uM, 8 h) 4.85 ± 0.31. For GELRLGKNLYTNEYVAIKLEPMKS [CSNK1G3] the same measures were 2.32 ± 0.29 and 2.27 ± 0.7. With GEYPRWDAWSGSNAYHIERLMSFR [CRYBA1], the protein stability index by setting is: (treatment: DMSO) 2.17 ± 0.22; (treatment: MLN4924 1 uM, 8 h) 2.41 ± 0.28.

As for GFAFITFENPADAKNAAKDMNGKS [RBMY1A1], the protein stability index came out at 3.55 ± 0.46 (treatment: DMSO) and 3.68 ± 0.36 (treatment: MLN4924 1 uM, 8 h).

Where the note is “treatment: MLN4924 1 uM, 8 h”, GFEFSVPFTEMKLRPRNFRSPAGG [TNXB] had a protein stability index of 3.66 ± 0.66. As for GGEMSPQVETSIEGTIPFSKPVKV [INTS4], the protein stability index is 4.77 ± 0.2 (treatment: DMSO) and 4.76 ± 0.17 (treatment: MLN4924 1 uM, 8 h). For GGFAKCYEMTDLTNNKVYAAKIIP [PLK2], the protein stability index came out at 2.52 ± 0.38 (treatment: DMSO) and 2.81 ± 0.29 (treatment: MLN4924 1 uM, 8 h). Regarding GGGSLSGGGGSRSISASSARFVSS [KRT15], the protein stability index is 4.23 ± 0.47 (treatment: DMSO) and 4.39 ± 0.23 (treatment: MLN4924 1 uM, 8 h). The matching figures for GGKIIMPPSALDQLSRLNITYPML [UFD1]: 2.16 ± 0.089 and 2.28 ± 0.2.

For the sequence GIPKGVMLSHDNITWIAGAVTKDF [ACSBG2], the protein stability index is 2.67 ± 0.15 (treatment: DMSO) and 2.74 ± 0.15 (treatment: MLN4924 1 uM, 8 h).

As for GKLSWGTMARALGRFKLSIPHTHL [WDR88], the protein stability index (treatment: DMSO) was determined as 2.31 ± 0.28 and the protein stability index (treatment: MLN4924 1 uM, 8 h) worked out at 2.13 ± 0.11. In the case of GKRRKDEISVDSLDFSKKILHTAW [PPP2R2B], the protein stability index is 2.34 ± 0.2 (treatment: DMSO) and 2.52 ± 0.049 (treatment: MLN4924 1 uM, 8 h). For GKVQDIKAREKDGKGRTASPINSP [FSD1] the same measures were 4.99 ± 0.37 and 5.25 ± 0.24. The matching figures for GLGNTWPGASGSAQSLDRLGIMGA [ATP23]: 3.3 ± 0.24 and 3.48 ± 0.3.

Regarding GLPPSGSWQDLKDHMREAGDVCYA [SRSF1], the protein stability index reads like this: (treatment: DMSO) 3.65 ± 0.25; (treatment: MLN4924 1 uM, 8 h) 3.83 ± 0.48. As to GMLCSFRIPGAWSCAWSLNIQANN [DCAF4], the protein stability index (treatment: DMSO) came out at 2.69 ± 0.8 and the protein stability index (treatment: MLN4924 1 uM, 8 h) amounted to 2 ± 0.29. As to GMVRAHGVRVSVPCPSTTCCRACS [BET1L], the protein stability index was determined as 3.04 ± 0.29 (treatment: DMSO) and 3.4 ± 0.51 (treatment: MLN4924 1 uM, 8 h).

For the sequence GNFESLDLAEFAKKQPWWRKLFGQ [FUNDC2], the protein stability index is, setting by setting: (treatment: DMSO) 3.31 ± 0.24; (treatment: MLN4924 1 uM, 8 h) 3.29 ± 0.35. Consider GNGALSNISDLPFLAENSAFPKMA [LCOR], for which the protein stability index was determined as 3.72 ± 0.22 (treatment: DMSO) and 3.49 ± 0.17 (treatment: MLN4924 1 uM, 8 h). The matching figures for GPAPPPLPPALVPAGGLAPGGGRG [WAS]: 5.09 ± 0.13 and 5.09 ± 0.18. The sequence GPDTQDLEGQSPPQSLPSTPKAAW [PBXIP1] yielded a protein stability index (treatment: DMSO) of 5.2 ± 0.28 and a protein stability index (treatment: MLN4924 1 uM, 8 h) of 5.07 ± 0.18.

For the sequence GPFDQGSPFAQELLDDGQQASPYH [ELF3], the protein stability index reads like this: (treatment: DMSO) 5.16 ± 0.18; (treatment: MLN4924 1 uM, 8 h) 4.96 ± 0.13. As to GPLLGTNGATDDSKTNLIVNYLPQ [ELAVL3], the protein stability index reads like this: (treatment: DMSO) 3.84 ± 0.3; (treatment: MLN4924 1 uM, 8 h) 3.92 ± 0.24.

For the sequence GRGPPSEPVLTQTSEQAPSSAPRD [PTPRD], the protein stability index was 5.74 ± 0.22 (treatment: DMSO) and 5.34 ± 0.31 (treatment: MLN4924 1 uM, 8 h).

For the origin of these results see the supplement of paper PMC10567573.
